IntAct's records for PubMed 25068414

B1: Protein ECT2 (Homo sapiens), Q9H8V3 (parent)
chain: MAENSVLTSTTGRTSLADSSIFDSKVTEISKENLLIGSTSYVEEEMPQIETRVILVQEAGKQEELIKALKTIKIMEVPVIKIKESCPGKSDEKLIKSVINMDIKVGFVKMESVEEFEGLDSPEFENVFVVTDFQDSVFNDLYKADCRVIGPPVVLNCSQKGEPLPFSCRPLYCTSMMNLVLCFTGFRKKEELVRLVTLVHHMGGVIRKDFNSKVTHLVANCTQGEKFRVAVSLGTPIMKPEWIYKAWERRNEQDFYAAVDDFRNEFKVPPFQDCILSFLGFSDEEKTNMEEMTEMQGGKYLPLGDERCTHLVVEENIVKDLPFEPSKKLYVVKQEWFWGSIQMDARAGETMYLYEKANTPELKKSVSMLSLNTPNSNRKRRRLKETLAQLSRETDVSPFPPRKRPSAEHSLSIGSLLDISNTPESSINYGDTPKSCTKSSKSSTPVPSKQSARWQVAKELYQTESNYVNILATIIQLFQVPLEEEGQRGGPILAPEEIKTIFGSIPDIFDVHTKIKDDLEDLIVNWDESKSIGDIFLKYSKDLVKTYPPFVNFFEMSKETIIKCEKQKPRFHAFLKINQAKPECGRQSLVELLIRPVQRLPSVALLLNDLKKHTADENPDKSTLEKAIGSLKEVMTHINEDKRKTEAQKQIFDVVYEVDGCPANLLSSHRSLVQRVETISLGEHPCDRGEQVTLFLFNDCLEIARKRHKVIGTFRSPHGQTRPPASLKHIHLMPLSQIKKVLDIRETEDCHNAFALLVRPPTEQANVLLSFQMTSDELPKENWLKMLCRHVANTICKADAENLIYTADPESFEVNTKDMDSTLSRASRAIKKTSKKVTRAFSFSKTPKRALRRALMTSHGSVEGRSPSSNDKHVMSRLSSTSSLAGIPSPSLVSLPSFFERRSHTLSRSTTHLI
partner: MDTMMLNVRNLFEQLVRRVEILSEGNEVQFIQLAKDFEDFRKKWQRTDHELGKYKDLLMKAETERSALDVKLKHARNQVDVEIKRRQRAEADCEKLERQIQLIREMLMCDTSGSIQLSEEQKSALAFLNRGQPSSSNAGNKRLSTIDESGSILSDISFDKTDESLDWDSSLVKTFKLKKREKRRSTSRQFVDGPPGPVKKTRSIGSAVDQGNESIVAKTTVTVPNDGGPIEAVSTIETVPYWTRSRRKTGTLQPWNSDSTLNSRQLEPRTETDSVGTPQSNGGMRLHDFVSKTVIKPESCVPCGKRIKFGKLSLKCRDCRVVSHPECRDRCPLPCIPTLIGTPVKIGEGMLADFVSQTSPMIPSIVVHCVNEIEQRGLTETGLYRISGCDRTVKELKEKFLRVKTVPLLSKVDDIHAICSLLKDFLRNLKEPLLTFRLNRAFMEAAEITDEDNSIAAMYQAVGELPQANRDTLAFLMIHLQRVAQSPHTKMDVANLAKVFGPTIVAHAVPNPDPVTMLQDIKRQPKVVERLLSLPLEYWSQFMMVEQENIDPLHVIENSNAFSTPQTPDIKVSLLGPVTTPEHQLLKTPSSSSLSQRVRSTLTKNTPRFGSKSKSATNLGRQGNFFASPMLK
B2: Rac GTPase-activating protein 1 (Homo sapiens), Q9H0H5 (parent)
chain: B1 partner
partner: B1 chain

Variants of: B1
Settings: with rgap1_human RACGAP1, Q9H0H5

Row | Variant | effect of a mutation on the interaction
1 | V153A | decreasing interaction

Variants of: B1
Settings: with rgap1_human RACGAP1, Q9H0H5
Remark: another data set of the same source

Row | Variant | effect of a mutation on the interaction
2 | V153A;L195M | disrupting interaction

Variants of: B1
Settings: with rgap1_human RACGAP1, Q9H0H5
Remark: another data set of the same source

Row | Variant | effect of a mutation on the interaction
3 | L195M | disrupting interaction

Variants of: B1
Settings: with rgap1_human RACGAP1, Q9H0H5
Remark: another data set of the same source

Row | Variant | effect of a mutation on the interaction
4 | P163E | decreasing interaction

Variants of: B2
Settings: with ect2_human ECT2, Q9H8V3

Row | Variant | effect of a mutation on the interaction
5 | W167A | decreasing interaction
